From paper PMC6650902

Target: TAF complex (TFIIDΔTBP) (S. cerevisiae) (UniProt P46677)

topoisomerase I assay on pDrive/RPS5: linking number change (ΔLk) with TAFs and TBP mixed in equimolar amounts before the plasmid (TAF complex alone +1.91): 0.48
Substance: TATA-box binding protein (TBP), recombinant (from UniProt P13393 1-240) (natural protein)
